# Patent EP4631959A2, “NOVEL MINIGASTRIN-DERIVED CHOLECYSTOKININ 2 RECEPTOR BINDING MOLECULES FOR IMAGING AND TARGETED RADIOTHERAPY” (priority 2022, dated 2024)
# Like-named read-outs stand apart in the source and are kept apart here. Starred links: 1 amine or outer side, 2 acyl side, 3 side chain; linkers in the order of their positions; H or OH if unused. Non-standard residues stand in square brackets, D forms with d. Residues, ends and D or L forms follow the SMILES beside them. *: point of attachment. DOTA = O=C(O)CN1CCN(CC(=O)O)CCN(CC(=O)*)CCN(CC(=O)O)CC1; d(γGlu) = O=C(O)[C@@H](CCC(=O)[*:2])N[*:1]; 1Nal = N[C@@H](Cc1cccc2ccccc12)C(=O)O; NMeNle = CCCC[C@H](NC)C(=O)O; PEG4 = NCCOCCOCCOCCOCCC(=O)O
# Assays:
# [1] = biological target: T1, Human serum albumin (HSA) (Homo sapiens, UniProt P02768); assay: Determination of HSA binding on a Chiralpak HSA column; type: in vitro ADME
# T1 construct: purchased Daicel, Tokyo, Japan H13H-2433
# T1 sequence (P02768 25-609): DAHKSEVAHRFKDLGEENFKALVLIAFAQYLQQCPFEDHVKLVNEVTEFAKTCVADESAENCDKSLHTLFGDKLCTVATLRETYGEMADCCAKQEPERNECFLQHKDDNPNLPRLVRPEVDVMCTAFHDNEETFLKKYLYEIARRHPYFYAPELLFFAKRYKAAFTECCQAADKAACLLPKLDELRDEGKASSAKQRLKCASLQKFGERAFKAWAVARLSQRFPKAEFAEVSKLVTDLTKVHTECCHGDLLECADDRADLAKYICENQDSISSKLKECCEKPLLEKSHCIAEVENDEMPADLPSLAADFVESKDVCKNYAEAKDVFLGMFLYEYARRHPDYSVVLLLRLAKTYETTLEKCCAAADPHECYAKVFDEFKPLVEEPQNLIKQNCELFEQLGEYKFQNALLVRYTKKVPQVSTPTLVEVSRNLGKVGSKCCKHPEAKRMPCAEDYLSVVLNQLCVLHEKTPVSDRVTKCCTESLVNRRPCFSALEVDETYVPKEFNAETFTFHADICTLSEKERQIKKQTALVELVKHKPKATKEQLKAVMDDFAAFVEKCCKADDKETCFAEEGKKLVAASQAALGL
# Procedure: Human serum albumin (HSA) binding of the CCK-2R-targeted compounds was determined as reported by Valko et al., using a Chiralpak HSA column (50 x 3 mm, 5 µm, H13H-2433, Daicel, Tokyo, Japan) at a constant flow rate of 0.5 mL/min at rt. Therefore, an aq. solution of NH4OAc (pH = 6.9, 50 mM) as mobile phase A and isopropanol as mobile phase B were freshly prepared. In order to calibrate the column prior to the experiments, the retention times of nine reference substances with a HSA binding in the range of 13 to 99% were determined using a gradient of 100% A (0 to 3 min), followed by 80% A (3 to 40 min). Furthermore, all substances tested, were dissolved in a mixture (1/1, v/v) of A and B reaching a final concentration of 0.5 mg/mL. The HSA binding of all rhCCK ligands tested, was determined using the same gradient as for the calibration probes. The non-linear regression of the calibration experiments and the CCK-2R ligands (Fig. 29) was established using the OriginPro 2016G software (Northampton, United States).
# [2] = Biodistribution in AR4-2J tumor-bearing CB17-SCID mice; type: in vivo; conditions: female, CB17-SCID, mouse, in vivo, iv, 100 pmol, total radioactivity
# Procedure: (§1) All animal experiments were conducted in accordance with general animal welfare regulations in Germany (German animal protection act, in the edition of the announcement, dated May 18th, 2006, as amended by Article 280 of June 19th 2020, approval no. ROB-55.2-1-2532.Vet_02-18-109 by the General Administration of Upper Bavaria) and the institutional guidelines for the care and use of animals. CB17-SCID mice of both genders (Charles River Laboratories International Inc., Sulzfeld, Germany) were let to acclimate at the in-house animal facility at least for one week before inoculation was performed. To establish tumor xenografts, AR4-2J cells (5.0 × 10^6 cells per 200 µL) were suspended in a 1/1 mixture (v/v) of Dulbecco modified Eagle medium / Nutrition Mixture F-12 with Glutamax-I (1/1) and Cultrex® Basement Membrane Matrix Type 3 (Trevigen, Gaithersburg, MD, USA) and inoculated subcutaneously onto the right shoulder of 6-10 weeks old CB17-SCID mice (Charles River, Sulzfeld, Germany). Mice were used for experiments when tumors had grown to a volume of 150-300 mm^3 (1-2 weeks after inoculation). Exclusion criteria for animals from an experiment were either a weight loss higher than 20%, a tumor size above 1,500 mm^3, an ulceration of the tumor, a respiratory distress or a change of behavior. None of these criteria applied to any animal from the experiment. Neither randomization nor blinding was applied in the allocation of the experiments. Health status is SPF according to FELASA.
# (§2) Approximately 1-5 MBq (100 pmol) of the radiolabeled minigastrin analogues were injected into the tail vein of AR4-2J tumor-bearing female CB17-SCID mice and sacrificed at 1 to 24 h post injection (n = 4-5). Selected organs were removed, weighted and measured in a γ-counter.
# CCK-2R [3] = biological target: T2, CCK-2R (Rattus norvegicus, UniProt P30553); assay: Determination of IC50: CCK-2R affinity on AR4-2J cells, competition with [^177Lu]Lu-DOTA-PP-F11N; type: binding; conditions: AR4-2J cells
# T2 construct: The CCK-2R expressing rat pancreatic tumor cells AR4-2J; host or cells: AR4-2J rat pancreatic tumor cells
# T2 sequence (P30553 1-452): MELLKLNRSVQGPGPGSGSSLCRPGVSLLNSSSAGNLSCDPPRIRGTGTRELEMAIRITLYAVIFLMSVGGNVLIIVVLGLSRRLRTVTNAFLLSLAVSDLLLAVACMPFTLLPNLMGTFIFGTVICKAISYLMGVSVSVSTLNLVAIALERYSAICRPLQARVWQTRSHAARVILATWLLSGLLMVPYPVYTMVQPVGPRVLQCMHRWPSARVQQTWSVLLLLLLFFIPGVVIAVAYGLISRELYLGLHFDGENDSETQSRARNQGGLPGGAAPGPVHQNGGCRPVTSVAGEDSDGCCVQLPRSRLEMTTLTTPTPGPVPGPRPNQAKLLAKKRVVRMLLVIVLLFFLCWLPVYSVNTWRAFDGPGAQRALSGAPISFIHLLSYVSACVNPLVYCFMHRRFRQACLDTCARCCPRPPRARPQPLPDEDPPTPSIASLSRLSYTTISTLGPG
# Summary of the method: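 Competitive displacement of 0.3 pmol/well [177Lu]Lu-DOTA-PP-F11N by compounds (10^-10 to 10^-4 M) on AR4-2J cells in BSA-supplemented medium, 3 h at 37 °C. Free label was collected from medium plus PBS rinse, and cell-bound label was recovered with 1 M NaOH, both measured by γ-counter. Each IC50 was determined twice, in triplicate.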
# CCK-2R [4] = assay: Competition studies in AR4-2J tumor-bearing CB17-SCID mice; type: in vivo; conditions: co-administration of excess unlabeled competitor (40 nmol), 24 h p.i.
# Procedure: For competition studies, the radiolabeled compound (approx. 1-5 MBq, 100 pmol) was co-injected with [^natLu]Lu-DOTA-MGS5 (40 nmol) into the tail vein of AR4-2J tumor-bearing CB17-SCID mice and sacrificed at 1 to 24 h post injection (n = 2). Selected organs were removed, weighted and measured in a γ-counter.
# [5] = n-Octanol-PBS distribution coefficient (logD7.4); type: physicochemical; conditions: for logD7.4 (n ≥ 5), ^67Ga-labeled: pH = 7.4, ^67Ga-labeled; for logD7.4 (n ≥ 5), ^177Lu-labeled: pH = 7.4, ^177Lu-labeled
# Procedure: Approximately 1 MBq of the labeled tracer was dissolved in 1 mL of a 1/1 mixture (v/v) of phosphate buffered saline (PBS, pH = 7.4) and n-octanol in an Eppendorf tube (1.5 mL). After vigorous mixing of the suspension for 3 min at rt, the vial was centrifuged at 9,000 rpm for 5 min (Biofuge 15, Heraeus Sepatech, Osterode, Germany) and 200 µL aliquots of both layers were measured in a γ-counter. The experiment was repeated at least five times.
# [6] = tested on: AR4-2J tumor-bearing CB17-SCID mice; assay: Biodistribution in AR4-2J tumor-bearing CB17-SCID mice; type: in vivo; conditions: 24 h p.i.
# Procedure: as §1, §2
# [7] = ^natCu-labeled, read-out: IC50 [nM] (n = 3), ^natCu-labeled
# [8] = ^natGa-labeled, read-out: IC50 [nM] (n = 3), ^natGa-labeled
# [9] = ^natLu-labeled, read-out: IC50 [nM] (n = 3), ^natLu-labeled
IC50 (CCK-2R [3]; [7]) [nM],IC50 (CCK-2R [3]; [8]) [nM],SMILES,HSA binding [%] [1] [%],"HSA binding [%], ^natCu-labeled [1] [%]","HSA binding [%], ^natGa-labeled [1] [%]","HSA binding [%], ^natLu-labeled [1] [%]",tissue to tissue ratio at 24 h [2],tissue uptake at 24 h [2] [%ID/g],activity levels in stomach and tumor in competition studies (CCK-2R specificity) (CCK-2R [4]),"logD7.4 (n ≥ 5), ^64Cu-labeled ([5]; pH = 7.4, ^64Cu-labeled)","logD7.4 (n ≥ 5), ^67Ga-labeled [5]","logD7.4 (n ≥ 5), ^67Ga-labeled ([5]; listed as [^67Ga]Ga-DOTA-CCK-66)","logD7.4 (n ≥ 5), ^177Lu-labeled [5]",IC50 (CCK-2R [3]; [9]) [nM],"tissue uptake at 24 h ([2]; 24 h p.i., read-out: activity levels in the tumor) [%ID/g]","activity levels in the tumor, fold higher than those of [^177Lu]Lu-DOTA-PP-F11N [6]","HSA binding [%] ([1]; Tab. 8, metal not stated (Fig. 18: ^natLu))"
3.9 ± 1,3.6 ± 0.4,"CCCC[C@@H](C(=O)N[C@@H](CC(=O)O)C(=O)N[C@@H](Cc1cccc2ccccc12)C(N)=O)N(C)C(=O)[C@H](Cc1c[nH]c2ccccc12)NC(=O)CNC(=O)[C@H](Cc1ccc(O)cc1)NC(=O)[C@H](C)NC(=O)[C@@H](CCC(=O)O)NC(=O)CN1CCN(CC(=O)O)CCN(CC(=O)O)CCN(CC(=O)O)CC1 [DOTA-MGS5, DOTA-glu^6-Ala^7-Tyr^8-Gly^9-Trp^10-(N-Me)Nle^11-Asp^12-1-Nal^13-NH2, reference compound]",87.6,87.6,82.0,91.9,1480 ± 329,11 ± 1.15,,,,,,,,,
4.2 ± 0.5,5 ± 0.5,"CCCC[C@@H](C(=O)N[C@@H](CC(=O)O)C(=O)N[C@@H](Cc1cccc2ccccc12)C(N)=O)N(C)C(=O)[C@H](Cc1c[nH]c2ccccc12)NC(=O)CCOCCOCCOCCOCCNC(=O)CC[C@@H](NC(=O)CN1CCN(CC(=O)O)CCN(CC(=O)O)CCN(CC(=O)O)CC1)C(=O)O [DOTA-CCK-66, DOTA-γ-glu-(PEG)3-Trp-(N-Me)Nle-Asp-1-Nal-NH2] ({DOTA-d(γGlu)-PEG4}-W[NMeNle]D[1Nal]-NH2)",61.5,61.5,53.8,69.1,2010 ± 469,8.56 ± 1.08,significantly decreased activity levels in both stomach and tumor,−2.64 ± 0.04,−3.01 ± 0.07,< -3,−2.60 ± 0.07,5.1 ± 0.5,,,
,,"CCCC[C@H](NC(=O)[C@H](Cc1c[nH]c2ccccc12)NC(=O)CNC(=O)[C@H](Cc1ccc(O)cc1)NC(=O)[C@H](C)NC(=O)CC[C@@H](NC(=O)CC[C@@H](NC(=O)CC[C@@H](NC(=O)CC[C@@H](NC(=O)CC[C@@H](NC(=O)CC[C@@H](NC(=O)CC[C@@H](NC(=O)CC[C@@H](NC(=O)[C@@H](CNC(=O)c1ccc([Si](F)(C(C)(C)C)C(C)(C)C)cc1)NC(=O)CN1CCN(CC(=O)O)CCN(CC(=O)O)CCN(CC(=O)O)CC1)C(=O)O)C(=O)O)C(=O)O)C(=O)O)C(=O)O)C(=O)O)C(=O)O)C(=O)O)C(=O)N[C@@H](CC(=O)O)C(=O)N[C@@H](Cc1ccccc1)C(N)=O [DOTA-MG-SiFA-23, DOTA-dap(SiFA)-(γ-glu)8- Ala-Tyr-Gly-Trp-Nle-Asp-Phe-NH2]",,,,,,,specific,,,,−2.69 ± 0.06,4.71 ± 0.62,> 25,more than 8 fold,
,,"CCCC[C@H](NC(=O)[C@H](Cc1c[nH]c2ccccc12)NC(=O)CNC(=O)[C@H](Cc1ccc(O)cc1)NC(=O)[C@H](C)NC(=O)CC[C@@H](NC(=O)CC[C@@H](NC(=O)CC[C@@H](NC(=O)CC[C@@H](NC(=O)CC[C@@H](NC(=O)CC[C@@H](NC(=O)[C@@H](CNC(=O)c1ccc([Si](F)(C(C)(C)C)C(C)(C)C)cc1)NC(=O)CCC(C(=O)O)N1CCN(CC(=O)O)CCN(CC(=O)O)CCN(CC(=O)O)CC1)C(=O)O)C(=O)O)C(=O)O)C(=O)O)C(=O)O)C(=O)O)C(=O)N[C@@H](CC(=O)O)C(=O)N[C@@H](Cc1ccccc1)C(N)=O (some centres unmarked) [DOTAGA-MG-SiFA-19, DOTAGA-dap(SiFA)-γ-F11N]",,,,,,,specific,,,,−2.54 ± 0.05,,,,
,,"CCCC[C@@H](C(=O)N[C@@H](CC(=O)O)C(=O)N[C@@H](Cc1cccc2ccccc12)C(N)=O)N(C)C(=O)[C@H](Cc1c[nH]c2ccccc12)NC(=O)CCOCCOCCOCCOCCNC(=O)CC[C@@H](NC(=O)CCOCCOCCOCCOCCOCCOCCOCCOCCOCCOCCOCCOCCNC(=O)CC[C@@H](NC(=O)[C@@H](CNC(=O)c1cc(C(=O)O)cc([Si](F)(C(C)(C)C)C(C)(C)C)c1)NC(=O)CN1CCN(CC(=O)O)CCN(CC(=O)O)CCN(CC(=O)O)CC1)C(=O)O)C(=O)O [DOTA-rhCCK-69, DOTA-dap(SiFA-ipa)-γ-glu-(PEG)11-γ-glu-(PEG)3-Trp-(N-Me)Nle-Asp-1-Nal-NH2]",,,,,,,,,,,−2.11 ± 0.09,43.1 ± 1.7,,,84.7
